In patent publication US20210024630A1 (SYSTIMMUNE, published 2021):

Tests used:
[1] = molecular target: T1, human PD-L1 (human, UniProt Q9NZQ7 19-290); assay: flow cytometry (FACS) on human PDL1 transfected CHO cells
T1 construct: whole, on cells; also called human PDL1 transfected CHO cells

[2] = molecular target: T2, human 4-1BB (human, UniProt Q07011 24-255); assay: flow cytometry (FACS) on human 41BB transfected CHO cells
T2 construct: whole, on cells; also called human 41BB transfected CHO cells
Procedure: (§1) The tetra-specific GNC antibodies listed in TABLEs 3 and 4 were tested for binding to Chinese hamster ovary cells (CHO) cells stably expressing a full-length human ROR1. Antibodies were prepared at 2× final concentration and titrated 1:5 across 3 wells of a 96 well plate in 50 ul of PBS/2% FBS and then 5,000 ROR1-CHO cells in 50 ul PBS/2% FBS were added. This mixture was incubated for 30 minutes on ice, washed once with 200 ul PBS/2% FBS, and then the secondary antibody PE Goat anti-Human IgG Fc at 1:1000 dilution of stock was added, and this mixture was incubated for 30 minutes on ice. Cells were washed 2×200 ul PBS/2% FBS, resuspended in 50 ul PBS/2% FBS and analyzed on a BD LSRFORTESSA and the binding profile is shown in FIG. 5. All of the tetra-specific GNC antibodies except for the control SI-27E12 contain a 41BB binding domain, 460C3, 420H5, or 466F6 and bound to 41BB expressing CHO cells with varying intensity.

[3] = molecular target: T3, human ROR1 (human, UniProt Q01973 30-937); assay: flow cytometry (FACS) on CHO cells stably expressing full-length human ROR1
T3 construct: whole, on cells; also called full-length human ROR1 on CHO cells; ROR1-CHO
Procedure: as §1, with “4.” for “5. All of the tetra-specific GNC antibodies except for the control SI-27E12 contain a 41BB binding domain, 460C3, 420H5, or 466F6 and bound to 41BB expressing CHO cells with varying intensity.”

T3 sequence (Q01973 30-937): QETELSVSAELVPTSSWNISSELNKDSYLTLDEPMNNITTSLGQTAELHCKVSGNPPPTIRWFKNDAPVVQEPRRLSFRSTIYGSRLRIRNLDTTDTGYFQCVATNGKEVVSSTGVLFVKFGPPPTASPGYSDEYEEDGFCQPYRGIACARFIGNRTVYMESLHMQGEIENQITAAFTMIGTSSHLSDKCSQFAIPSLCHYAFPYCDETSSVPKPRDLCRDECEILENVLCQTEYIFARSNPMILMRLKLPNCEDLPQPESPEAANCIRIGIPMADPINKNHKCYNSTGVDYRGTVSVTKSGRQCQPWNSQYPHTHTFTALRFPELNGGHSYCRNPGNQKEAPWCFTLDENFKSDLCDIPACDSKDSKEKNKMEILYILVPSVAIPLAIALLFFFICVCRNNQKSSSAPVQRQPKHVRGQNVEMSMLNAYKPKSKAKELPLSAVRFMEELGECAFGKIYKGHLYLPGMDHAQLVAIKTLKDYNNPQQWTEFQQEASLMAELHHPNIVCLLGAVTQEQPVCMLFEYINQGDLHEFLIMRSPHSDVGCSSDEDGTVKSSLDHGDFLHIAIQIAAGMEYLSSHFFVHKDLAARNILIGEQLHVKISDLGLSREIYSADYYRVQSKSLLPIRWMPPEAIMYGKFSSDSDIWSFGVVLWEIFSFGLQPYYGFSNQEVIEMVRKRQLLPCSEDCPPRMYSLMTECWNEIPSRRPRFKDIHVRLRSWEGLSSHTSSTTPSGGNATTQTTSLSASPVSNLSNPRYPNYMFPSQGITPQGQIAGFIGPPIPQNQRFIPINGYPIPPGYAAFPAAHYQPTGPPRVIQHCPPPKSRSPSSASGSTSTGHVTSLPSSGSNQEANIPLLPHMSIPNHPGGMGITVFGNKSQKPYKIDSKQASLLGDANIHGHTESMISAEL
T2 sequence (Q07011 24-255): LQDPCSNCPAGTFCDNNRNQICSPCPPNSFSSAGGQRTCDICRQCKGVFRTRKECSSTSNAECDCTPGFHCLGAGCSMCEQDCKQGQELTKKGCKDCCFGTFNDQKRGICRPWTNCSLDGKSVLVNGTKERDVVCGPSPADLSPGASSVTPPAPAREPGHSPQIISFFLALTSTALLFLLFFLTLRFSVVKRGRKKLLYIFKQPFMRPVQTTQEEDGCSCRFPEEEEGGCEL
T1 sequence (Q9NZQ7 19-290): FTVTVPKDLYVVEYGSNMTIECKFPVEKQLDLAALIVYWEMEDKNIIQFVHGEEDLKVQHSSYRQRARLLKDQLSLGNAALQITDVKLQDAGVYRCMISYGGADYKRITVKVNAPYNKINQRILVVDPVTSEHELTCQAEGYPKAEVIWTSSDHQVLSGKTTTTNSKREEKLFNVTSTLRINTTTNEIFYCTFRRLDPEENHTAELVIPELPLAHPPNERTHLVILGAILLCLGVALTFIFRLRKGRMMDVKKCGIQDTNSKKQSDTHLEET

binding result [1] | binding result [2] | binding result [3] | Binder
binds | binds | binds | SI-35E18 (460C3-L1H1-scFv x PL230C6-Fab x 323H7-H4L1-scFv x 284A10-H1L1-scFv) (antibody, Tetra-specific (4-1BB x PD-L1 x ROR1 x CD3) antibody with human IgG1 null2 Fc; also called tetra-specific GNC antibody) heavy: not shown light: AYDMTQSPSSVSASVGDRVTIKCQASEDIYSFLAWYQQKPGKAPKLLIHSASSLASGVPSRFSGSGSGTDFTLTISSLQPEDFATYYCQQGYGKNNVDNAFGGGTKVEIKRTVAAPSVFIFPPSDEQLKSGTASVVCLLNNFYPREAKVQWKVDNALQSGNSQESVTEQDSKDSTYSLSSTLTLSKADYEKHKVYACEVTHQGLSSPVTKSFNRGEC
binds | binds | binds | SI-35E20 (466F6-L5H2-scFv x PL230C6-Fab x 323H7-H4L1-scFv x 284A10-H1L1-scFv) (antibody, Tetra-specific (4-1BB x PD-L1 x ROR1 x CD3) antibody with human IgG1 null2 Fc; also called tetra-specific GNC antibody) heavy: not shown light: AYDMTQSPSSVSASVGDRVTIKCQASEDIYSFLAWYQQKPGKAPKLLIHSASSLASGVPSRFSGSGSGTDFTLTISSLQPEDFATYYCQQGYGKNNVDNAFGGGTKVEIKRTVAAPSVFIFPPSDEQLKSGTASVVCLLNNFYPREAKVQWKVDNALQSGNSQESVTEQDSKDSTYSLSSTLTLSKADYEKHKVYACEVTHQGLSSPVTKSFNRGEC
